Results on five molecules are retold here after paper PMC7255614, “Strain-specific joint invasion and colonization by Lyme disease spirochetes is promoted by outer surface protein C” (PLoS Pathogens, 2020).

For experiment [1], the target named is T1, fibronectin (UniProt P02751 32-2477). The experiment is described as follows: ELISA; wells coated with 10 μg/ml purified fibronectin in 0.05 M Na2CO3 pH 9.0; 0.03125-2 μM GST or GST-tagged OspC variants, 1 hr at ambient temperature; goat anti-GST and HRP-conjugated anti-goat IgG; estimated KD from a fit of OD405. The settings on record: both partners purified.
T1 sequence (P02751 32-2477): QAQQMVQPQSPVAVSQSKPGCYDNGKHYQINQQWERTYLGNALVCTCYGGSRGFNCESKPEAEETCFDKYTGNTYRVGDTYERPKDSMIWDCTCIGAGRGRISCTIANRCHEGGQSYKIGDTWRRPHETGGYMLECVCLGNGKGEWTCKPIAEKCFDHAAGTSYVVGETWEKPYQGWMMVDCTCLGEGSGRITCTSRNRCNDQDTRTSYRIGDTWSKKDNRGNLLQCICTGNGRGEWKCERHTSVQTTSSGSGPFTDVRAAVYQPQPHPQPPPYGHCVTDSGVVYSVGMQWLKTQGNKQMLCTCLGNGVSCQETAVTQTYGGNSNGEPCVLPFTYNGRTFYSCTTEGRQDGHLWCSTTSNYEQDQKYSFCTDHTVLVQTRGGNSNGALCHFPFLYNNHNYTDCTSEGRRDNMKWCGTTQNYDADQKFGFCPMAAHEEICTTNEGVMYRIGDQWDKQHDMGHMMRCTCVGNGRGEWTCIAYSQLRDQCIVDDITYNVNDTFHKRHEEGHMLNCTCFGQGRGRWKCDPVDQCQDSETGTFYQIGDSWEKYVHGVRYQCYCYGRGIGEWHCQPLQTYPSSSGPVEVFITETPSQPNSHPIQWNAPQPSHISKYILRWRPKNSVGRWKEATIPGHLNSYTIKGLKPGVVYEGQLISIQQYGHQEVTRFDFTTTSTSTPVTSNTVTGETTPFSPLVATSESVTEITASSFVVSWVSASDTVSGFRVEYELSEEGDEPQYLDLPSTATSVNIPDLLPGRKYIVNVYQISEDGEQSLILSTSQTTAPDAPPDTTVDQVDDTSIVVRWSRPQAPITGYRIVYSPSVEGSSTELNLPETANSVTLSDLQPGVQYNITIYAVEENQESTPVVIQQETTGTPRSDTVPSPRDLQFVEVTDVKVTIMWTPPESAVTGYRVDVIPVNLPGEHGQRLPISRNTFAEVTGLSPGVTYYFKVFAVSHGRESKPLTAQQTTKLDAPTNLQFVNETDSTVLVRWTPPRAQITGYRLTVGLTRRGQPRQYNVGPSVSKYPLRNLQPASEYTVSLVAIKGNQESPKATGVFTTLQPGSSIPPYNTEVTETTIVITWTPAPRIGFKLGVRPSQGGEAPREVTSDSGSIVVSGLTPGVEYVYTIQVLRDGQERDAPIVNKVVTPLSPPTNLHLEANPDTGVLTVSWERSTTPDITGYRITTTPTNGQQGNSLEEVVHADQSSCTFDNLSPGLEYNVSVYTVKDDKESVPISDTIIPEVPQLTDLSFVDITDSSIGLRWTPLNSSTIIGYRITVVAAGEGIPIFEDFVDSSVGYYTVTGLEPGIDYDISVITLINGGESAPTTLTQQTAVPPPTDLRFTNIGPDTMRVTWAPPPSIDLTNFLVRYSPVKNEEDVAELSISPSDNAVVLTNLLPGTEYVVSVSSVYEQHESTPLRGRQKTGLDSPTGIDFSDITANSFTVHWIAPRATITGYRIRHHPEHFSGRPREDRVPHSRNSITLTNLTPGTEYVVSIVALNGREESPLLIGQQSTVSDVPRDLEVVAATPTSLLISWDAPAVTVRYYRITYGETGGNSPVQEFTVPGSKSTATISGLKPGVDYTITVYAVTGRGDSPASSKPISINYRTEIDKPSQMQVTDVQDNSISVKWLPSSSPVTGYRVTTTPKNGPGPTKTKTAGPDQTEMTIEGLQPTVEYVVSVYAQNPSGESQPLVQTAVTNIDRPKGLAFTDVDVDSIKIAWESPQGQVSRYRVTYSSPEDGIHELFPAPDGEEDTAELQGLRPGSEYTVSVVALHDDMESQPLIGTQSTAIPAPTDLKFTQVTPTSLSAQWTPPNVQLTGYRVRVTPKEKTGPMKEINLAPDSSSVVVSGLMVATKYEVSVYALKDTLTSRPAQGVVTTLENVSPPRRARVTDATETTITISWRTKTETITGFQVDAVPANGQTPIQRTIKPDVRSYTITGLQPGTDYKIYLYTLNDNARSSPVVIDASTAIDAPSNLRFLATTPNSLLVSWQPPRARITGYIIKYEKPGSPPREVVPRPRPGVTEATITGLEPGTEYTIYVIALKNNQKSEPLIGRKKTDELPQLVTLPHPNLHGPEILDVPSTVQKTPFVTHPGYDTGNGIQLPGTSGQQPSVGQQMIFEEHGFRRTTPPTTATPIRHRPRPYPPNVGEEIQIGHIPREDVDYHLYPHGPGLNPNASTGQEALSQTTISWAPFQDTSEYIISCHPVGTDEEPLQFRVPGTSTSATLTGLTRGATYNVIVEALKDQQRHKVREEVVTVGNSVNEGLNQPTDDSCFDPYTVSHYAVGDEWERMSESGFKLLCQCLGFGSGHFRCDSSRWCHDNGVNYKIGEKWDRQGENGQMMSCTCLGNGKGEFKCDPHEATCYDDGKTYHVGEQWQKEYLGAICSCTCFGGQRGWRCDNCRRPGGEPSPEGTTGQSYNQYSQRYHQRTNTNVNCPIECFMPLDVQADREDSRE

Experiment [2] addresses T1, fibronectin. The experiment is described as follows: SPR; Biacore 3000; fibronectin on a CM5 chip; 0-500 nM untagged OspC variants injected at 10 μl/min, 25°C; 1:1 Langmuir model; KD from the average koff divided by kon of each run. The settings on record: both partners purified. A general note: SPR reads the build-up and loss of mass on a sensor chip optically.

B1: GST-OspC_(B31-ECM)^- (natural protein, B. burgdorferi strain B31-A3, UniProt Q07337 19-210, looked up)
chain: CNNSGKDGNTSANSADESVKGPNLTEISKKITDSNAVLLAVKEVEALLSSIDEIAAKAIGKKIHQNNGLDTENNHNGSLLAGAYAISTLIKQKLDGLMNEGLMEMIDAAMMCSETFTNKLKEKHTDLGKEGVTDADAKEAILKTNGTKTKGAEELGKLFESVEVLSKAAKEMLANSVKELTSPVVAESPKKP
notes: Cloned into pGEX4T2 at BamHI and SalI; also called OspCECM^-; source: E. coli BL21(DE3), purified by glutathione chromatography
By Kd is commonly meant the concentration at which binding is half-saturated. As to B1, the Kd in the experiment with fibronectin [1] is 2.14 µM.

B2: GST-OspCB31 (natural protein)
chain: CNNSGKDGNTSANSADESVKGPNLTEISKKITDSNAVLLAVKEVEALLSSIDEIAAKAIGKKIHQNNGLDTENNHNGSLLAGAYAISTLIKQKLDGLKNEGLKEKIDAAKKCSETFTNKLKEKHTDLGKEGVTDADAKEAILKTNGTKTKGAEELGKLFESVEVLSKAAKEMLANSVKELTSPVVAESPKKP
notes: Cloned into pGEX4T2 at BamHI and SalI; also called wild type OspCB31; source: E. coli BL21(DE3), purified by glutathione chromatography
Consider B2, for which the Kd in the experiment with fibronectin [1] was 3.46 µM.

B3: OspCB31, untagged (natural protein, B. burgdorferi strain B31-A3, UniProt Q07337 19-210, looked up)
chain: CNNSGKDGNTSANSADESVKGPNLTEISKKITDSNAVLLAVKEVEALLSSIDEIAAKAIGKKIHQNNGLDTENNHNGSLLAGAYAISTLIKQKLDGLKNEGLKEKIDAAKKCSETFTNKLKEKHTDLGKEGVTDADAKEAILKTNGTKTKGAEELGKLFESVEVLSKAAKEMLANSVKELTSPVVAESPKKP
notes: OspC (outer surface protein C) of B. burgdorferi strain B31-A3, without GST tag; Probably the GST fusion with the tag removed
What is called koff is a measure of how fast the partners let go of each other. The low end stands for slow dissociation, the high end for fast dissociation. Usually kon stands for a measure of how fast the partners come together. A high value points to faster complex formation. For the molecule B3, in the experiment with fibronectin [2], the affinity, expressed as Kd, was 9.21 µM; the koff was 0.13 s⁻¹; the kon was 19900 M⁻¹ s⁻¹.

B4: GST-OspC_(VS461) (natural protein, B. afzelii strain VS461, UniProt Q0SL36 19-212, looked up)
chain: CNNSGKGGDSASTNPADESAKGPNLTEISKKITDSNAFVLAVKEVETLVLSIDELAKKAIGQKIDNNNGLAALNNQNGSLLAGAYAISTLITEKLSKLKNLEELKTEIAKAKKCSEEFTNKLKSGHADLGKQDATDDHAKAAILKTHATTDKGAKEFKDLFESVEGLLKAAQVALTNSVKELTSPVVAESPKKP
notes: Cloned into pGEX4T2 at BamHI and SalI; source: E. coli BL21(DE3), purified by glutathione chromatography
As to B4, the Kd with fibronectin [1] was 0.52 µM.

B5: OspC_(VS461), untagged (natural protein, B. afzelii strain VS461, UniProt Q0SL36 19-212, looked up)
chain: CNNSGKGGDSASTNPADESAKGPNLTEISKKITDSNAFVLAVKEVETLVLSIDELAKKAIGQKIDNNNGLAALNNQNGSLLAGAYAISTLITEKLSKLKNLEELKTEIAKAKKCSEEFTNKLKSGHADLGKQDATDDHAKAAILKTHATTDKGAKEFKDLFESVEGLLKAAQVALTNSVKELTSPVVAESPKKP
notes: OspC (outer surface protein C) of B. afzelii strain VS461, without GST tag; Probably the GST fusion with the tag removed
In the experiment with fibronectin [2], B5 gave an equilibrium dissociation constant (Kd) of 0.8 µM, a koff of 0.09 s⁻¹ and a kon of 151000 M⁻¹ s⁻¹.
